Here are results for one protein from paper doi:10.1101/2025.03.06.641832 (bioRxiv, 2025).

This data set concerns the molecule itself. Nature of the data set: SEC. Background: SEC sorts molecules by how far they enter the pores of the column.

B1: recombinant WT influenza A NP (NΔ7NP, C-terminal His tag) (natural protein)
chain: RSYEQMETDGERQNATEIRASVGKMIGGIGRFYIQMCTELKLSDYEGRLIQNSLTIERMVLSAFDERRNKYLEEHPSAGKDPKKTGGPIYRRVDGKWMRELILYDKEEIRRIWRQANNGDDATAGLTHMMIWHSNLNDATYQRTRALVRTGMDPRMCSLMQGSTLPRRSGAAGAAVKGVGTMVMELIRMIKRGINDRNFWRGENGRRTRIAYERMCNILKGKFQTAAQRAMVDQVRESRNPGNAEFEDLIFLARSALILRGSVAHKSCLPACVYGPAVASGYDFEREGYSLVGIDPFRLLQNSQVYSLIRPNENPAHKSQLVWMACHSAAFEDLRVSSFIRGTKVVPRGKLSTRGVQIASNENMETMESSTLELRSRYWAIRTRSGGNTNQQRASSGQISIQPTFSVQRNLPFDRPTIMAAFTGNTEGRTSDMRTEIIRLMESARPEDVSFQGRGVFELSDEKAASPIVPSFDMSNEGSYFFGDNAEEYDN
On to B1, for which the binding result is reported as “binds”.
